The source of these data is IntAct's records for PubMed 14504388.

Sequences and labels used below:
B1: CBL-interacting serine/threonine-protein kinase 24 (Arabidopsis thaliana (Mouse-ear cress)), Q9LDI3 (parent)
chain: MTKKMRRVGKYEVGRTIGEGTFAKVKFARNTDTGDNVAIKIMAKSTILKNRMVDQIKREISIMKIVRHPNIVRLYEVLASPSKIYIVLEFVTGGELFDRIVHKGRLEESESRKYFQQLVDAVAHCHCKGVYHRDLKPENLLLDTNGNLKVSDFGLSALPQEGVELLRTTCGTPNYVAPEVLSGQGYDGSAADIWSCGVILFVILAGYLPFSETDLPGLYRKINAAEFSCPPWFSAEVKFLIHRILDPNPKTRIQIQGIKKDPWFRLNYVPIRAREEEEVNLDDIRAVFDGIEGSYVAENVERNDEGPLMMNAFEMITLSQGLNLSALFDRRQDFVKRQTRFVSRREPSEIIANIEAVANSMGFKSHTRNFKTRLEGLSSIKAGQLAVVIEIYEVAPSLFMVDVRKAAGETLEYHKFYKKLCSKLENIIWRATEGIPKSEILRTITF
B2: Protein phosphatase 2C 77 (Arabidopsis thaliana (Mouse-ear cress)), O04719 (parent)
chain: MDEVSPAVAVPFRPFTDPHAGLRGYCNGESRVTLPESSCSGDGAMKDSSFEINTRQDSLTSSSSAMAGVDISAGDEINGSDEFDPRSMNQSEKKVLSRTESRSLFEFKCVPLYGVTSICGRRPEMEDSVSTIPRFLQVSSSSLLDGRVTNGFNPHLSAHFFGVYDGHGGSQVANYCRERMHLALTEEIVKEKPEFCDGDTWQEKWKKALFNSFMRVDSEIETVAHAPETVGSTSVVAVVFPTHIFVANCGDSRAVLCRGKTPLALSVDHKPDRDDEAARIEAAGGKVIRWNGARVFGVLAMSRSIGDRYLKPSVIPDPEVTSVRRVKEDDCLILASDGLWDVMTNEEVCDLARKRILLWHKKNAMAGEALLPAEKRGEGKDPAAMSAAEYLSKMALQKGSKDNISVVVVDLKGIRKFKSKSLN
partner: B1 chain

One experiment covers variants of B1. The note with it: with ABI2, O04719.
Consider R340A;F341A, for which the “effect of a mutation on the interaction” value was “decreasing interaction”.

The variants in a further experiment derive from B2. The settings on record: with cipko_arath CIPK24, Q9LDI3.
Take G168D: the “effect of a mutation on the interaction” value was “decreasing interaction”. On the same count and under the same terms, the result for G162D reads “decreasing interaction”.
